Paper PMC9583076

Molecular target: Individual alanine mutations of these three residues (HTR2B S455, S456 and S457)
Assay: FRET or BRET

N-terminal Venus-tagged β-arrestin-1, sequence (P49407 whole entry): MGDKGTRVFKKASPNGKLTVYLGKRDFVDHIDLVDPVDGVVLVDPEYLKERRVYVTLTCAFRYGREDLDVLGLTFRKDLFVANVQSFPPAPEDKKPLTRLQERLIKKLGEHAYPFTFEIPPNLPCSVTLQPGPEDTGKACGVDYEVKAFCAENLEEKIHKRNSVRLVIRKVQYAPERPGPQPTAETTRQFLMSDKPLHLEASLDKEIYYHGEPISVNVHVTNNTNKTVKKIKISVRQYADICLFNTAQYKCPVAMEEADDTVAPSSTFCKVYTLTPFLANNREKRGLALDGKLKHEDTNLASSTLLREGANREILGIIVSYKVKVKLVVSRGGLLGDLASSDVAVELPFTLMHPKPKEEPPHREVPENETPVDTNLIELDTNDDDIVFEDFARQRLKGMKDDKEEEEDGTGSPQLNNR

reduction of Emax of β-arrestin-1 recruitment against WT: 30 to 50%
Substance: N-terminal Venus-tagged β-arrestin-1 (from UniProt P49407 1-418) (natural protein)
